The nature of the series: label from the status in PepcDB records.
On to “MSWFDDLFSNKENSDEELLRRKSKRRNGDLTQNKDDSLLPENNDIYDRPRGKFRFPIDVGQDENYEEAIYRDSNDDIGSYRPHSSNDHSSYDSFDYDGHTNQSNNYAKYDSSEDSRRRRRRNHINQDDTGIPSIKSRSPKSSNKYIDTRESQRFNKHQNNYSSTNVSNYSKANSNHQSRVKLQSERFKSNYHLSSEPTYHRSSFKTSEVPSAIFGTKKRRPIENGVIPPVKDDEDSKESITKYSSSTVEHVPHESNHAIADNSNKEDTKRSSQLDSSITIENESTIESSSNTSNNNERTPNYSKRDNTVNIENIYASQIVEEIRKERERKVQQKRKFKEALQNKRQQTDEEDSIQRAIDEMYAKQAEQYTGESSLNQGDNVSNKSNESEIDKSKHSYHSKDKSLVDEHNGLVQNQTDEQTNSDNVDNQTEVSNESHEPYNYEEIDLNQVSSVQQVRQDDVQVKDVLEEQSSKINNNKVESYSNEKFDDYLEDTNSHEEMLHDDDLHEQVMDDDENEGISNKTTDENNDEKIDDANYREINESESLMQDKANDLKFNDEVNNSENQQNSSENNINNAVRNAVSSDIEYATNEDEENDERLAQDTNKEDQKLSQSEDIQHESLNNEDVSLTSNKTDDSEHLEKDSLNEDKKAEPSFNKTNKAPQKMSIKPGSKPFNVVMTPSDKKRVMDAKKNSVSRNKVNVPELKPETKKEAQDEKMNAEFDNHLNESQLNSDESSDFNVASLEYNESSEHSVEKDNIINDENTRENEHQDVDNSQNNDMPKGNQFSKVQNSNNQNDNKHDINEFVSKEGYSEVTSTKNHKDGDDANHKAPIRRGPNIKLPSLDLLEDHEEHEIDESWIEEKKQELNDAFYYFNVPAEVQNVTEGPSVTRFELAVEKGVKVSRITALQDDIKMALAAKDIRIEAPIPGTSLVGIEVPNLNPTKVNLKSILESPKFKNAESKLTVAMGNRINNEPLLMDIAKTPHALIAGATGSGKSVCINSILMSLLYKNHPEELRLLLIDPKMVELAPYNDLPHLVSPVITDVKAATQSLKWAVDEMEKRYKLFAQFHVRNITAFNKKAPYEQRMPKIVIVIDELADLMMMAPQEVEQSIARIAQKARACGIHMLVATQRPSVNVITGLIKANIPTRIAFMVSSSVDSRTILDSGGAERLLGYGDMLYLGSGMNKPIRVQGTFVSDDEIDDVVDFIKDQREPDYLFEEKELLKKNQTQAQDELFDDVCEFMVKEGHISTSLIQRHFQIGYNRAARIVDQLEQLDYISGANGSKPRDVFITEADLKKE”, for which the protein production entry is given as “failed”.

Take “MSYAGDITPLQAWEMLSDNPRAVLVDVRCEAEWRFVGVPDLSSLGREVVYVEWATSDGTHNDNFLAELRDRIPADADQHERPVIFLCRSGNRSIGAAEVATEAGITPAYNVLDGFEGHLDAEGHRGATGWRAVGLPWRQG”: the protein production result is “not failed”.

In the case of “MSYFYKHCLKFSLVGLLGLLSVQLDARSFVDGDLDIQKFSYEDSLLKKGDPNGVHKVQVRDYKGKMQEAEIHSEIRIALKPGVKKEVKKGKIYSAQINDGMCYAFRMLQTGDNTTGLDSKEFPKQSREKKGRVITLIGKGEVPYLILETDCQVGDIAKISLVGNFDGTGFLTEYKFKDAKPIY”, the protein production entry is recorded as “failed”.

In the case of “MSYGLIIVLMIILGIGLWHTKKYHRAVVNQVAHVWITKNAFEHTALGMAIVSPDCRFLKVNRAYGEITGYTRPELLKMAVKELTHPEDQEKDTPYLQEVFAGNIHSFTTVKRYIHKNGSTIWVRSTISAVRTERGNLKYFVAQIQDMTIAKNAEDELRKSRDNAEVLARTDYLTKTLNRRAFIERLQEELERTKRTQEGFAMILVDIDYFKKVNDQFGHLAGDYVLQKFADCLSNNVRPYDFIGRYGGEEFIICLPDTDVEQAALVAERMRESVEALEVDYLHAQIKVTGSFGVAVYDSHSSDTLDELIEKADGAMYVAKNHKNTVYQWVS”, the protein production result was “failed”.

For “MSYLDNVRVFVRVVELGTLSAAGRDQRVTPAVASNRIKELERHMGVRLFNRTTRKLTPTEHGRVFYEGAVKILEAVNEAESAIADLSRNPKGALKITAPLGIGRRLIAPGIPEFHDRYPDIEVRLRLSDHNVDILAEGVDIAFKLGILEDSNLRMRGIMNCDRVLCGSPRYFERRGIPSSPDDLLSHSHDCLLLRYPGSKEYYWTLQTPDGVRKFEVGGPYDSDDGDVLTQWALDGRGIVNKPLFEVKQHIDEGLLVPVLEETPPLGAQLAAIYPHKRFQDPKVRLMIDFMAERCQRLIGKMLAESAEVQERSSA”, the protein production result was “failed”.

For the sequence “MSYLLRREEVVDVAGLQAMLEETPGKAAQAILAAAGQGVVEAQLLLGQILLDGRGIQQDATVARRWFGIAAQGGSAMAHNMLGRCLEHGWGGEVNLVQAAVHYARAADSGLDWGLYNLGNLLATGRGVPANQVQALMCYEKAAQLGHAKSMNLYGRYLEQGIATAPSPARAVRWYRRSAEAGDFRGMFSLALVLVERGQLAEAGQWLEQARVAGNMNFLRAALVTLQDAGPVLMAFAARYAEEIDRREEAGTGEHT”, the protein production entry is reported as “failed”.

Consider “MSYSWKKILIKPESTVVDALRVIDNEALRIALVVNDEQQLLGVVTDGDIRRGLLNNLPLETPVVDIMSRSPITASVNTAKEQLVKLMESKSILAVPLMEENKVVGLETLHHLFEEKTYHNPVFIMAGGFGTRLRPLTDTCPKPMLKIGNKPILETVIRSFIKAGFVNFYISTHYMPEQIQNHFGDGSELGVKISYVHEDSPLGTGGALGLLPDDLPQDLPLIMMNGDVLTKVDFERLLDFHTENQADATMCVREYDYQIPYGVINGKGNKITSMVEKPIQRFFVNAGIYVVSPSVIQSVPKNHHIDMPTLLEQHMNERDNILMFPIHEYWLDIGRMDDFNRAQADIHTLGLDLEHHHHHH”, for which the protein production result is on record as “failed”.

Regarding “MTAAENIQEQLYPAPIKTVEEGSPAARAGVRPGDVLLRVNGQPVTDVLAYRHQLERGVVTLEVARPHEAPRVMTGVAGTAQDHHRLMLPQPPSLDETLTFTVEWEDPGLDFEEVLFDGIKKCANKCDFCYVHQMPRGFRKSLYIMDDDYRLSFLYGSFVTLTNLTEGDINRILDENLSPLYVSVHTANQDLRQDMMKWWKLKVKDPQAVQIREMIERLESIDLYTQIVLVPERNDRENLDETVEYLSSRPNVISAAVVPIGLTAHRTNLPDVRTFTPEEAQDTLRRLNVWRRKFLAERGTRFIFPSDELYLLAGEPLPTEEEYEGFPMLENGVGMIRDFLTEALPPLPAALPEPRKVILGTGLLFADSLARAIEPLRQIEGLDIEVRAIENKTFGKVTTVAGLLTGRCFRHAVQPGEADLLIVPPTTLRYGTELMIDDTSLGELRRELKMDVRAGGATLGELARVVLEGAQSSGHQFGMSAHAVKDSGRDDVAPSASRAQGGAAPEESLEEDVAESGMHGRGQA”, the protein production result is listed as “failed”.

Consider “MTAARSAPSPAGAPRPGLRERKKTRTREAIRAATYGLIRQQGYEATTVEQIAERAEVSPSTVLRYFPTREDIVLTDEYDPVMAAELAARPAGEPWSDSLRHVLRKALGLGAGEEAELIRLRTRLLAEVPAVRARMLENMSDTGRMLARAIADRTGLDPDGLEVRIVSMSLVGGLMEVSRYWAEHDHEESLAELVDRALDALENGLPALRESDRESDREGDRGGHREDRREGPRKD”, for which the protein production entry is “not failed”.

For the sequence “MTAAVARALTLWGLDGASYELAAQRENEVWKVSDGTRHYALRFHRPAYRSEAELTSELLWVEMLGQAGMQVPQPVRQPDGAVLGRIEGRHVSLLDWLGGRPLGKMGQLAPDLDAEAVGRMIGAQMARMHDLSDRWTPPAGFQRPDWRRSGLLGADPLWGRFWEHPDLDPAQRQLMIATRERALACFEDFAPGADQGLIHADLVVENVLVDHDRVAFIDFDDGAWGYRDFDLATVLVKFIGQPDYDRLRAGLCAGYDARRRVEPGTLDFMLLLRALTYPGWIMSRLDEPGGRQRSARMLDTALRLARDFMEERQR”, the protein production result is listed as “failed”.

As to “MTAFRCLITGLTWLAKPGIRRYVWIPLAVNLVLYGLGLWLGIRYFSAFLNWMLPGWLDFLRWLLWPVFAVGFFTVMYFTFSVLANIIGSPFYGVLAERTAELATGRRIRPAGVAGEVGMWSALRSEFRRLAYLGLRIVPLAALFLVPVVNLVAPVLWMLFNAWFMALEYTAYPLEARGYDFDHQRSLLGRFRLGAATFGGTVLLAQTIPLLNVLAAPAAVIGATLYLLELPVEE”, the protein production result is listed as “failed”.

As to “MTAHPPRPELQIDIVSDVVCPWCIVGFRQLDQALAATGVLARLRWHPFELNPQMGPEGQNLREHIMEKYGSTPEQSAEARARLTAIGAELGFTFNFTDDSRIVNTFAAHQLLDWAEGQGRQHPLKQALFAAYFTDGRDVSDLSVLLDAVEAAGLDREAAQTALTSGAHQAPVREKQKFWAQHGISGVPSMVFGGKYLLTGAQGADTYAQVIQRCLAEA”, the protein production result was “not failed”.

The values are drawn from a protein production outcome set (Wang et al. 2014).
